# Measurements taken from IntAct's records for PubMed 22634751.
# B1: Cyclin-dependent kinase inhibitor 1C (Homo sapiens), P49918 (parent)
# chain: MSDASLRSTSTMERLVARGTFPVLVRTSACRSLFGPVDHEELSRELQARLAELNAEDQNRWDYDFQQDMPLRGPGRLQWTEVDSDSVPAFYRETVQVGRCRLLLAPRPVAVAVAVSPPLEPAAESLDGLEEAPEQLPSVPVPAPASTPPPVPVLAPAPAPAPAPVAAPVAAPVAVAVLAPAPAPAPAPAPAPAPVAAPAPAPAPAPAPAPAPAPAPDAAPQESAEQGANQGQRGQEPLADQLHSGISGRPAAGTAAASANGAAIKKLSGPLISDFFAKRKRSAPEKSSGDVPAPCPSPSAAPGVGSVEQTPRKRLR
# Variants of: B1
# Details: with pcna_human PCNA
row,Variant,effect of a mutation on the interaction
1,MSDASLRSTSTMERLVARGTFPVLVRTSACRSLFGPVDHEELSRELQARLAELNAEDQNRWDYDFQQDMPLRGPGRLQWTEVDSDSVPAFYRETVQVGRCRLLLAPRPVAVAVAVSPPLEPAAESLDGLEEAPEQLPSVPVPAPASTPPPVPVLAPAPAPAPAPVAAPVAAPVAVAVLAPAPAPAPAPAPAPAPVAAPAPAPAPAPAPAPAPAPAPDAAPQESAEQGANQGQRGQEPLADQLHSGISGRPAAGTAAASANGAAIKKLSGPLISDFVAKRKRSAPEKSSGDVPAPCPSPSAAPGVGSVEQTPRKRLR [F276V],disrupting interaction
2,MSDASLRSTSTMERLVARGTFPVLVRTSACRSLFGPVDHEELSRELQARLAELNAEDQNRWDYDFQQDMPLRGPGRLQWTEVDSDSVPAFYRETVQVGRCRLLLAPRPVAVAVAVSPPLEPAAESLDGLEEAPEQLPSVPVPAPASTPPPVPVLAPAPAPAPAPVAAPVAAPVAVAVLAPAPAPAPAPAPAPAPVAAPAPAPAPAPAPAPAPAPAPDAAPQESAEQGANQGQRGQEPLADQLHSGISGRPAAGTAAASANGAAIKKLSGPLISDFFAERKRSAPEKSSGDVPAPCPSPSAAPGVGSVEQTPRKRLR [K278E],disrupting interaction
